Reference: publication PMC8533642 (Journal of medicinal chemistry, 2021)
Square brackets hold non-standard residues; d marks the D form. dPhe(4-I) = N[C@H](Cc1ccc(I)cc1)C(=O)O; 2Nal = N[C@@H](Cc1ccc2ccccc2c1)C(=O)O; d2Nal = N[C@H](Cc1ccc2ccccc2c1)C(=O)O

What was measured:
[1] = molecular target: mouse melanocortin-1 receptor (mouse) (UniProt Q01727)
[2] = molecular target: mouse melanocortin-3 receptor (mouse) (UniProt P33033)
[3] = molecular target: mouse melanocortin-4 receptor (mouse) (UniProt P56450)
Sequence of mouse melanocortin-4 receptor (mouse) (P56450 whole entry): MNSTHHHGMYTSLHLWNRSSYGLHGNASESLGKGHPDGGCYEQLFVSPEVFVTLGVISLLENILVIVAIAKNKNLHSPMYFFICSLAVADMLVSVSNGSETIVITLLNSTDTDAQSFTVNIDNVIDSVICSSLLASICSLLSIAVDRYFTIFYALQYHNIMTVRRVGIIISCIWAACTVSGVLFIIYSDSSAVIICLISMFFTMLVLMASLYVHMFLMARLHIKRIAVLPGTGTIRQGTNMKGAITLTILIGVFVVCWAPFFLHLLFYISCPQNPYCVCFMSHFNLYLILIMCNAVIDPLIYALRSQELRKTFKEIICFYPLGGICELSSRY

[4] = molecular target: mouse melanocortin-5 receptor (mouse) (UniProt P41149)
Sequence of mouse melanocortin-5 receptor (mouse) (P41149 whole entry): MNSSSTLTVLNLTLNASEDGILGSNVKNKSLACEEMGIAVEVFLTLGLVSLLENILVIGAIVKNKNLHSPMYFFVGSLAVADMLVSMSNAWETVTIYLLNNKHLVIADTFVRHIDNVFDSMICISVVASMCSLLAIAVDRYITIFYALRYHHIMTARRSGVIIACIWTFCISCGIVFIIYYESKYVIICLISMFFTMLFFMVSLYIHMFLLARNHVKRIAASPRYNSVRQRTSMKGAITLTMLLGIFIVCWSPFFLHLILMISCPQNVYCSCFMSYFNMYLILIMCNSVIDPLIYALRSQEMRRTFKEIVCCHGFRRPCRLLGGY

[5] = molecular target: mouse melanocortin-3 receptor (mouse) (UniProt P33033); remark: listed apart in the source
[6] = molecular target: mouse melanocortin-4 receptor (mouse) (UniProt P56450); remark: listed apart in the source

Sequence of mouse melanocortin-1 receptor (mouse) (Q01727 whole entry): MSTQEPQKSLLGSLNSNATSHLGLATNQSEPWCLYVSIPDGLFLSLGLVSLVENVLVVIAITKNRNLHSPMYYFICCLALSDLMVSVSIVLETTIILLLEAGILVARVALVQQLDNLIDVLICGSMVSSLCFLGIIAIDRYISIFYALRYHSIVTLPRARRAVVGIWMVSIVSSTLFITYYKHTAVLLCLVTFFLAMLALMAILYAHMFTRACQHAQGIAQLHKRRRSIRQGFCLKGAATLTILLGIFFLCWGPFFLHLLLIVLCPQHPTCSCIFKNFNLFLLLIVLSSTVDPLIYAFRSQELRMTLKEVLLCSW
Sequence of mouse melanocortin-3 receptor (mouse) (P33033 whole entry): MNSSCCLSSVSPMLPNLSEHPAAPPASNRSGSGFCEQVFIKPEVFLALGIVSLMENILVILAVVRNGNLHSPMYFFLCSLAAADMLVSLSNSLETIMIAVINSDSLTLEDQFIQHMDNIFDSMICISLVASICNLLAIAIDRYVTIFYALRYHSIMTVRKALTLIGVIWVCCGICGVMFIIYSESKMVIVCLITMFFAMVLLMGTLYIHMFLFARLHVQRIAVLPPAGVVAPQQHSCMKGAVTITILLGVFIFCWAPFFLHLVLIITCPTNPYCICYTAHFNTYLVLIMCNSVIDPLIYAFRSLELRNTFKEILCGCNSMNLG

Row | Substance | % of maximal NDP-MSH response at 100 μM, cAMP AlphaScreen [1] [%] | agonist EC50, cAMP AlphaScreen [2] [µM] | agonist EC50, cAMP AlphaScreen [3] [µM] | agonist EC50, cAMP AlphaScreen [4] [µM] | % receptor activation relative to NDP-MSH (partial agonist), cAMP AlphaScreen [1] [%] | apparent EC50 (partial agonist), cAMP AlphaScreen [1] [µM] | pA2, antagonism of NDP-MSH at mMC3R, Schild analysis, cAMP AlphaScreen [5] | pA2, antagonism of NDP-MSH at mMC4R, Schild analysis, cAMP AlphaScreen [6] | % of maximal NDP-MSH response at 100 μM, cAMP AlphaScreen [3] [%] | antagonist Ki = 10^-(pA2), NDP-MSH at mMC4R, cAMP AlphaScreen [6] [nM] | agonist EC50, cAMP AlphaScreen [1] [µM] | % of maximal NDP-MSH response at 100 μM, cAMP AlphaScreen [4] [%] | % of maximal NDP-MSH response at 100 μM, cAMP AlphaScreen [2] [%] | antagonist Ki = 10^-(pA2), NDP-MSH at mMC3R, cAMP AlphaScreen [5] [µM]
1 | Ac-DNal(2’)-DNal(2’)-Nal(2’)-DLys-NH2 (peptide) | 45 | > 100 | > 100 | > 100 | – | – | – | – | – | – | – | – | – | –
2 | Ac-DPhe(pI)-Arg-DNal(2’)-Arg-NH2 (peptide) | – | > 100 | > 100 | > 100 | 65 | 0.4 | 6.9 | 8.3 | – | – | – | – | – | –
3 | Ac-DNal(2’)-DNal(2’)-DNal(2’)-DLys-NH2 (peptide) | 55 | > 100 | > 100 | > 100 | – | – | < 5.5 | < 5.5 | – | – | – | – | – | –
4 | Ac-[dPhe(4-I)]R[2Nal]R-NH2 | 25 | > 100 | – | > 100 | – | – | 7.8 | – | 25 | 1 | – | – | – | –
5 | Ac-DNal(2’)-Arg-DNal(2’)-DLys-NH2 (peptide) | – | > 100 | > 100 | > 100 | 30 | 6 | – | 8.2 | – | – | – | – | – | –
6 | Ac-[d2Nal]R[2Nal][dK]-NH2 | – | > 100 | > 100 | > 100 | 50 | 3.3 | 6.2 | 7.8 | – | – | – | – | – | –
7 | Ac-[d2Nal]RW[dK]-NH2 | – | > 100 | > 100 | > 100 | – | – | 5.5 | 7.7 | – | – | > 100 | – | – | –
8 | Ac-[dPhe(4-I)]R[2Nal][dK]-NH2 | – | > 100 | > 100 | > 100 | – | – | 6.8 | – | – | – | > 100 | – | – | –
9 | Ac-DNal(2’)-DNal(2’)-Nal(2’)-Arg-NH2 (peptide) | 55 | > 100 | > 100 | – | – | – | – | – | – | – | – | 40 | – | –
10 | Ac-DNal(2’)-DNal(2’)-DPhe(pI)-Arg-NH2 (peptide) | 25 | > 100 | > 100 | – | – | – | < 5.5 | < 5.5 | – | – | – | – | – | –
11 | Ac-[d2Nal]RWR-NH2 | 40 | > 100 | – | > 100 | – | – | 6.8 | 8.3 | 20 | – | – | – | – | –
12 | Ac-DPhe(pI)-DNal(2’)-DPhe(pI)-DLys-NH2 (peptide) | – | > 100 | > 100 | > 100 | – | – | – | – | – | – | > 100 | – | – | –
13 | Ac-DPhe(pI)-Arg-DPhe(pI)-DNal(2’)-NH2 (peptide) | – | – | – | – | – | – | 6.3 | 6.6 | 40 | – | 1.1 | 65 | 40 | –
14 | Ac-DPhe(pI)-DNal(2’)-Trp-DLys-NH2 (peptide) | 65 | > 100 | > 100 | > 100 | – | – | 5.7 | 6.6 | – | – | – | – | – | –
15 | Ac-DNal(2’)-DNal(2’)-Trp-DLys-NH2 (peptide) | 25 | > 100 | – | > 100 | – | – | 5.8 | 6.7 | 30 | 200 | – | – | – | 1.6
16 | Ac-Phe(pI)-Nal(2’)-Phe(pI)-Arg-NH2 (peptide) | 60 | – | – | – | – | – | – | – | – | – | – | – | – | –
17 | Ac-DPhe(pI)-DNal(2’)-DNal(2’)-DLys-NH2 (peptide) | 35 | > 100 | > 100 | > 100 | – | – | – | 6.3 | – | – | – | – | – | –
18 | Ac-[dPhe(4-I)]R[2Nal][d2Nal]-NH2 | 55 | > 100 | > 100 | > 100 | – | – | – | 6.7 | – | – | – | – | – | –
19 | Ac-[d2Nal]R[2Nal]R-NH2 | – | > 100 | – | > 100 | – | – | – | 8.8 | 30 | – | > 100 | – | – | –
20 | Ac-DPhe(pI)-DNal(2’)-Nal(2’)-Arg-NH2 (peptide) | 20 | > 100 | > 100 | 0.8 | – | – | – | 5.8 | – | – | – | – | – | –
21 | Ac-[dPhe(4-I)]RW[d2Nal]-NH2 | 45 | – | – | > 100 | – | – | – | 7.6 | 35 | – | – | – | 25 | –
22 | Ac-DPhe(pI)-DNal(2’)-Trp-Arg-NH2 (peptide) | – | > 100 | > 100 | > 100 | – | – | – | 5.6 | – | – | > 100 | – | – | –
23 | Ac-DPhe(pI)-DNal(2’)-Nal(2’)-DLys-NH2 (peptide) | 40 | – | > 100 | – | – | – | – | – | – | – | – | 50 | 20 | –
24 | Ac-DPhe(pI)-DNal(2’)-DPhe(pI)-Arg-NH2 (peptide) | 40 | > 100 | > 100 | 0.13 | – | – | – | – | – | – | – | – | – | –
25 | Ac-[d2Nal]RW[d2Nal]-NH2 | 40 | – | – | > 100 | – | – | 5.7 | – | 30 | – | – | – | 40 | –
26 | Ac-DPhe(pI)-DNal(2’)-DNal(2’)-Arg-NH2 (peptide) | – | > 100 | > 100 | 0.23 | – | – | – | – | – | – | > 100 | – | – | –
27 | Ac-DNal(2’)-Arg-Nal(2’)-DNal(2’)-NH2 (peptide) | 40 | – | – | – | – | – | – | 6.7 | 30 | – | – | 25 | 30 | –
28 | Ac-DNal(2’)-Arg-DPhe(pI)-DNal(2’)-NH2 (peptide) | – | – | – | – | – | – | 6.1 | 6.5 | 30 | – | – | 40 | 40 | –
